Data published in paper PMC11863148.

Biological target: MERS-CoV nsp13 helicase (WT) (MERS-CoV, UniProt K9N7C7 5311-5908)
Test: EMSA

Chain of MERS-CoV nsp13 helicase (WT) (K9N7C7 5311-5908): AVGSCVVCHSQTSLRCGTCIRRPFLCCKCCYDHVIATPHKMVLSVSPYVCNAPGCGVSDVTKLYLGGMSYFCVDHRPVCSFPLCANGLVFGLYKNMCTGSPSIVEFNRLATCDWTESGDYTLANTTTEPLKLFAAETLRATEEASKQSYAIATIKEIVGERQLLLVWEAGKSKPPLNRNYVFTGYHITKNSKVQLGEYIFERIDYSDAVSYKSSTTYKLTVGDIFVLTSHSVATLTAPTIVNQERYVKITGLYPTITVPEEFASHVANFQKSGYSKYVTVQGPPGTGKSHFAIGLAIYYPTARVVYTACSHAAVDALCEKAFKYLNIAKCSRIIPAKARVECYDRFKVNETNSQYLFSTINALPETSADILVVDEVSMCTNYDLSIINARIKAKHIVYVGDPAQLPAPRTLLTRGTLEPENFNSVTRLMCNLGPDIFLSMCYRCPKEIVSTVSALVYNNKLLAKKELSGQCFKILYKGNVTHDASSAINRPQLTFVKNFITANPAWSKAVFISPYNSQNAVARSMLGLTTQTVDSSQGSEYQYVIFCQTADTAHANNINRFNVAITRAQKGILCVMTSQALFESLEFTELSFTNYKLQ

B1: EMSA partial duplex, 18 bp with 5' (dT)21 overhang (dsDNA)
DNA 1: TTTTTTTTTTTTTTTTTTTTTCTGATGTTAGCAGCTTCG
DNA 2: CGAAGCTGCTAACATCAG
B1: binds.
